Measured values: the supplement of paper PMC9732359
± gives the uncertainty stated by the source.

Assay: protein stability index of a GFP-peptide fusion (yeast GPS) (PSI 1-4); higher = more stable; sorted into four equal gates, so the index is relative within each strain
How it was run: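 Tiled 17-residue peptides from yeast proteins were fused downstream of GFP on a plasmid that also expresses Cherry, and the pooled library was carried in yeast. Mid-log cultures grown in leucine-free medium were sorted into four equal gates by GFP/Cherry fluorescence ratio. Plasmids from each gate were PCR-amplified and Illumina-sequenced, and reads were assigned to strains by barcodes. Each peptide's protein stability index is the sum, over gates, of the gate's read frequency multiplied by its gate number.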

Row | Sequence | protein stability index (doa10∆) | protein stability index (pdr5∆) | protein stability index (san1∆) | protein stability index (ubr1∆)
1 | KVGYTLPSHIISTSDVT [RPL4A] | 2.49 ± 0.048 | 2.69 ± 0.043 | 2.58 ± 0.039 | 2.5 ± 0.035
2 | NENFRLVYDVKGRFAVH [RPS4A] | 3.41 ± 0.14 | 2.55 ± 0.17 | 3.32 ± 0.12 | 3.25 ± 0.13
3 | VPGPGTKLIQYEHNGRT [CSL4] | 3 ± 0.092 | 3.06 ± 0.058 | 3.25 ± 0.066 | 3.09 ± 0.056
4 | LMLKKLKNSIMSFIFPS [YML031W/NDC1] | 2.21 ± 0.058 | 2.3 ± 0.066 | 2.28 ± 0.073 | 2.37 ± 0.062
5 | EKASRQQRKQKKNRDKK [RPS24A] | 3.44 ± 0.094 | 3.17 ± 0.075 | 3.25 ± 0.044 | 3.32 ± 0.083
6 | EKVTRYNRHKLQELIVN [RPO31] | 1.74 ± 0.046 | 1.44 ± 0.043 | 1.82 ± 0.058 | 1.44 ± 0.041
7 | CGAWEPAITIEKLKQFS [SIR3] | 1.97 ± 0.087 | 1.76 ± 0.079 | 2.58 ± 0.13 | 1.54 ± 0.072
8 | LMTKLNSFKLFKAEKLQ [RPC17] | 1.97 ± 0.059 | 1.88 ± 0.054 | 1.92 ± 0.06 | 1.75 ± 0.04
9 | WSHNGPFETFDHASIRR [CYT1] | 2.79 ± 0.06 | 3 ± 0.062 | 2.79 ± 0.051 | 2.96 ± 0.043
10 | VTLDFGNIFADLLPNSF [SMC2] | 2.8 ± 0.1 | 2.86 ± 0.067 | 3.07 ± 0.07 | 2.91 ± 0.064
11 | KAKRAKTGSASTVKGSV [TAF14] | 2.9 ± 0.11 | 2.66 ± 0.24 | 2.77 ± 0.16 | 3.16 ± 0.083
12 | DPDKLKPNDLVGVNKDS [RPT5] | 3.18 ± 0.11 | 3.32 ± 0.13 | 3.34 ± 0.055 | 3.41 ± 0.098
13 | KQYDNRITKSNEKSQAE [LRP1] | 2.91 ± 0.087 | 2.91 ± 0.11 | 2.77 ± 0.075 | 3.02 ± 0.037
14 | KKEEELGVKSRLLEKSE [SNF2] |  | 3.01 ± 0.14 | 3.06 ± 0.2 | 3.04 ± 0.29
15 | YAIKKKDELERVAKSNR [RPS5] | 3.41 ± 0.061 | 3.35 ± 0.073 | 3.44 ± 0.043 | 3.23 ± 0.068
16 | GQRDLDRIAAQTLEEDE [RPS19A] | 3.21 ± 0.087 | 3.21 ± 0.091 | 3.29 ± 0.1 | 3.23 ± 0.097
17 | KKHLKRLAAPHHWLLDK [RPS4A] | 2.78 ± 0.14 | 2.58 ± 0.078 | 3.18 ± 0.08 | 3.01 ± 0.072
18 | SQPKIGYGSNKKTKFLS [RPL32] | 1.23 ± 0.15 | 1.52 ± 0.16 |  | 1.38 ± 0.096
19 | GSTFKVNQEFIFEAISL [YJL039C/NUP192] | 2.33 ± 0.1 | 2.31 ± 0.12 | 1.43 ± 0.15 | 1.49 ± 0.079
20 | ILINTARIHAQNYLKTY [PRE9] | 2.01 ± 0.085 | 1.78 ± 0.073 | 2.55 ± 0.17 | 1.89 ± 0.06
21 | NSDDIIDVDMDASPAPS [SRB5] | 2.71 ± 0.051 | 2.89 ± 0.061 | 2.78 ± 0.056 | 3 ± 0.072
22 | MPKKRASNGRNKKGRGH [RPS26A] | 3.3 ± 0.17 | 3.43 ± 0.19 | 2.82 ± 0.24 | 3.5 ± 0.083
23 | KTITLEVESSDTIDNVK [RPS31] | 2.88 ± 0.1 | 3.08 ± 0.062 | 2.77 ± 0.12 | 2.64 ± 0.086
24 | PGIMLRQMNLVITLLNN [YCS4] | 1.2 ± 0.06 | 1.11 ± 0.042 | 1.14 ± 0.13 | 1.19 ± 0.041
25 | ASITPYKLVNKNKENNT [RPN4] | 1.08 ± 0.078 | 2.28 ± 0.092 | 2.48 ± 0.12 | 2.11 ± 0.07
26 | TAVVNNAAPANVTGGKA [SWI1] | 2.64 ± 0.038 | 1.98 ± 0.04 | 2.37 ± 0.093 | 2.66 ± 0.037
27 | VQQSEKLRNEVERIQKM [YIL149C/MLP2] | 3.13 ± 0.13 | 3.42 ± 0.2 | 2.86 ± 0.2 | 3.24 ± 0.12

Row | Sequence | protein stability index (doa10∆) | protein stability index (pdr5∆) | protein stability index (san1∆) | protein stability index (ubr1∆)
28 | VDPRIINSENDYSRKQL [NUT1] | 3.06 ± 0.072 | 3.38 ± 0.072 | 2.78 ± 0.082 | 3.06 ± 0.056
29 | RSKFGGDFLDFQVHERL [ARP7] | 3.15 ± 0.11 | 3.11 ± 0.1 | 3.5 ± 0.075 | 3.32 ± 0.075
30 | LQDEVMNIKPVQKQTRA [RPS2] | 2.91 ± 0.2 | 3.12 ± 0.18 | 2.42 ± 0.14 | 3.63 ± 0.19
31 | QKTQELNAKYQSLGLDD [ISW2] | 3.31 ± 0.061 | 3.26 ± 0.048 | 3.17 ± 0.042 | 3.31 ± 0.052
32 | VQPTIGQLPQLPKLNLP [SNF5] | 3.05 ± 0.044 | 2.75 ± 0.046 | 2.49 ± 0.057 | 3.08 ± 0.043
33 | ETLEHNPVALEQKLVDL [BRR2] | 2.15 ± 0.092 | 2.79 ± 0.077 | 2.43 ± 0.074 | 2.35 ± 0.11
34 | GILYMGQGEQVDDVLET [RPN1] | 1.23 ± 0.16 | 1.19 ± 0.15 | 1.07 ± 0.18 | 1.23 ± 0.11
35 | SDNSEEEEVDIDMDKLN [RRP43] | 3.25 ± 0.069 | 3.25 ± 0.071 | 3.4 ± 0.077 | 3.11 ± 0.05
36 | QVENMKWDFAKDIKGYG [PRE4] | 2.03 ± 0.078 | 1.54 ± 0.082 | 1.41 ± 0.16 | 1.68 ± 0.049
37 | MSSEIAYSNTNTNTENE [SNF11] |  |  | 2.64 ± 0.24 | 3.04 ± 0.2
38 | NFEYDLSEYDAIQKKDN [YOR098C/NUP1] | 2.9 ± 0.2 | 3.23 ± 0.13 | 2.15 ± 0.26 | 3.23 ± 0.064
39 | QPQHPHYVSTSKISQMA [YLR018C/POM34] | 1.71 ± 0.037 | 2.17 ± 0.04 | 2.34 ± 0.048 | 2.19 ± 0.026
40 | VQNSTLAQLTSKLIPEV [RPS1B] | 2.19 ± 0.084 | 2.73 ± 0.062 | 2.27 ± 0.12 | 2.55 ± 0.047
41 | MARTKQTARKSTGGKAP [HHT1] | 3.31 ± 0.12 | 3.25 ± 0.11 | 3.04 ± 0.1 | 3.39 ± 0.092
42 | RVRNKDIRKFLDGIYVS [RPL9A] | 1.91 ± 0.081 | 2.07 ± 0.087 | 2.05 ± 0.11 | 2.23 ± 0.062
43 | FGNTSTSSAPAQNQGMF [YGL172W/NUP49] | 3.3 ± 0.15 | 3.4 ± 0.24 |  | 
44 | FGFSSSGTAATGAASNQ [YOR098C/NUP1] | 2.69 ± 0.11 | 3.41 ± 0.13 |  | 3.31 ± 0.07
45 | DTICQSIQEQIQEFQGN [SNF5] | 3.27 ± 0.073 | 3.44 ± 0.1 | 3.36 ± 0.076 | 3.6 ± 0.075
46 | AEEEEESDDDMGFGLFD [RPP0] | 3.36 ± 0.09 | 2.96 ± 0.12 | 3.24 ± 0.046 | 3.25 ± 0.065
47 | FPESIWKDFTVEIAFLF [YCG1] | 2.25 ± 0.06 | 2.43 ± 0.05 | 2.33 ± 0.067 | 2.29 ± 0.049
48 | QALQMKAMDIPIGRHEE [SWP82] | 2.86 ± 0.22 | 2.29 ± 0.13 |  | 2.08 ± 0.062
49 | PKLKRIGLVKCTQMTDE [GRR1] | 2.95 ± 0.073 | 2.89 ± 0.076 | 2.81 ± 0.057 | 2.86 ± 0.047
50 | EEAPAPTPAASAPAPAA [FAS2] | 2.8 ± 0.095 | 2.95 ± 0.076 | 2.85 ± 0.091 | 3.02 ± 0.1
51 | LEEVEGSCTGKFGYILC [RPB7] | 2.14 ± 0.067 | 2.56 ± 0.057 | 2.1 ± 0.066 | 2.21 ± 0.046
52 | VVTRSKEAFEEEIKQSA [SMC1] | 3.05 ± 0.14 | 3.07 ± 0.13 | 3.11 ± 0.25 | 3.1 ± 0.089
53 | ATFLKDDLPYYVNALAD [QCR2] | 2.37 ± 0.047 | 2.21 ± 0.046 | 2.27 ± 0.053 | 2.35 ± 0.032
